In the test the target is Aβ(1-40) monomer in 0.1% NaOH (human). The experiment in a line: dot blot with densitometry; Aβ form dotted on nitrocellulose in serial dilution, antibody 0.2 µg/ml; higher value = weaker recognition.

Results on 1 molecule are retold here after patent US20150368299A1.

Chain of Aβ(1-40) monomer in 0.1% NaOH (human) (peptide, as listed by the source): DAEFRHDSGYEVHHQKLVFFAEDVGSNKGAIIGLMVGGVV

B1: murine monoclonal anti-Aβ(20-42) globulomer antibody m4C9 (antibody, V domains shown)
VH: QVQLQQPGAELVKPGASVKLSCKAPGYTFTSYWMHWVKQRPGQGLEWIGRIDPKSGDTKYTEKFKSKATLTVDKPSSTAYMQLSSLTSEDSAVYYCTTMSKLSGTHAWFAYWGQGTLVTVSA
VL: DIKMTQSPSSMYASLGERVTITCKASQDINSYLTWFQQKPGKSPKTLIYRANRLVDGVPSRFSGSGSGQDYSLTISSLEYEDMGIYYCLQYDEFPLTFGAGTKLELK
Take B1: the dot blot relation of recognition of Aβ(20-42) globulomer to recognition of this Aβ form amounted to 110000.
